Here are results for one molecule from CN107417789A (INST RES BIOMEDICINE, dated 2017).

This test addresses T1, X-31 (H3N2) 菠萝蛋白酶释放的HA (BHA) (influenza A virus X-31 (H3N2), UniProt P03437 17-344; P03437 346-520).
T1 construct: domain: 菠萝蛋白酶释放的HA (BHA)
In words: complex formation and size exclusion chromatography.

B1: FI6变体3 Fab片段 (Fab, V domains shown)
VH: QVQLVESGGGVVQPGRSLRLSCAASGFTFSTYAMHWVRQAPGKGLEWVAVISYDANYKYYADSVKGRFTISRDNSKNTLYLQMNSLRAEDTAVYYCAKDSQLRSLLYFEWLSQGYFDYWGQGTLVTVSS
VL: not shown
Regarding B1, the binding result is recorded as “binds”.
